The source of these data is patent publication US20250064958A1 (Eli Lilly, published 2025).

In one assay the target is T1, human TfR ECD (human, UniProt P02786 89-760).
T1 construct: extracellular domain; also called human Transferrin Receptor 1 extracellular domain
Description: SPR, Biacore 8K, 37 C, TfR ECD immobilized on CM4 chip, TBP as analyte, 2-state binding model, n = 3. The procedure: (§1) Target human and Cynomolgous TfR ECDs were immobilized on a CM4 chip (Cytiva P/N 29104989) using standard NHS-EDC amine coupling. The TfR binding proteins were prepared at a final concentration of 0.3, 0.1, 0.033, 0.01, 0.0033, 0.001, 0.00033, 0.0001 μM respectively by dilution of stock solution into running buffer.
(§2) Binding analysis was performed in a multi-cycle kinetics manner. Each analysis cycle consists of (1) injection of the lowest to highest concentration proteins over all Fc at 50 μL/min for 140 seconds followed by return to buffer flow for 400 seconds to monitor dissociation phase; (2) regeneration of chip surfaces with injection of 3M magnesium chloride, for 30 seconds at 100 μL/min over all cells; and (3) equilibration of chip surfaces with a 50 μL (30-sec) injection of HBS-EP+. Data were processed using standard double-referencing and fit to a 2-state binding model using Biacore 8K Evaluation software, to determine the association rate (kₒₙ, M⁻¹s⁻¹ units), dissociation rate (koff, s⁻¹ units), and Rₘₐₓ (RU units). The equilibrium dissociation constant (KD) is calculated from the relationship KD=koff/kₒₙ, and is in molar units.

The next assay has as its target T2, Cynomolgous TfR ECD (Cynomolgus).
T2 chain: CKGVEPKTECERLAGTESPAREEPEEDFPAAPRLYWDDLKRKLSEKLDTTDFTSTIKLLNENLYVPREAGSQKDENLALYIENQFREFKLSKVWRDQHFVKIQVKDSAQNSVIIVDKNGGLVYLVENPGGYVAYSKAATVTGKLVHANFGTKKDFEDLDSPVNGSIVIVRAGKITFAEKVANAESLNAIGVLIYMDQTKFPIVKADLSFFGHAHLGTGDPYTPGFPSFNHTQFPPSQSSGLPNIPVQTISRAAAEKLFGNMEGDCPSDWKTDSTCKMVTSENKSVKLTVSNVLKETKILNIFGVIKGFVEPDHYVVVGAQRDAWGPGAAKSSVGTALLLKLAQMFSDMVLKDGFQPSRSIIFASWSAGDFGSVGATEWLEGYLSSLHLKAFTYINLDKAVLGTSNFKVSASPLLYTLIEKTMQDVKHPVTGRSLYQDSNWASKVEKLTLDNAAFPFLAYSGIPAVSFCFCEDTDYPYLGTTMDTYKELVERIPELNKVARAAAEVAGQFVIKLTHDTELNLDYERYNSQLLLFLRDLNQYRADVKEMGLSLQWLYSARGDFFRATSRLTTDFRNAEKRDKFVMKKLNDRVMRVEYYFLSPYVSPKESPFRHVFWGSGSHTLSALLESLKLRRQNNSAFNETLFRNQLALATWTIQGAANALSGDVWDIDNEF
The description is as above. How it is done: as §1, §2

B1: TBP4 (One Arm Heteromab 1, A378C) (antibody, human IgG4 S228P, kappa, F234A L235A)
heavy: EVQLVESGGGLVKPGGSLRLSCVASGFTFSSYSMNWVRQAPGKGLEWVSSISSSSSYIYYADSVKGRFTISRDNAKNSLYLQMNSLRAEDTAVYYCARRHGYSNSDAFDNWGQGTLVTVSSASTKGPSVFPLAPCSRSTSESTAALGCLVKDYFPEPVTVSWNSGALTSGVHTFPAVLQSSGLYSLSSVVTVPSSSLGTKTYTCNVDHKPSNTKVDKRVESKYGPPCPPCPAPEAAGGPSVFLFPPKPKDTLMISRTPEVTCVVVDVSQEDPEVQFNWYVDGVEVHNAKTKPREEQFNSTYRVVSVLTVLHQDWLNGKEYKCKVSNKGLPSSIEKTISKAKGQPREPQVSTLPPSQEEMTKNQVSLMCLVYGFYPSDICVEWESNGQPENNYKTTPPVLDSDGSFFLYSVLTVDKSRWQEGNVFSCSVMHEALHNHYTQKSLSLSLG
light: DIQMTQSPSAMSASVGDRVTITCRASQGISHYLVWFQQKPGKVPKRLIYAASSLQSGVPSRFSGSGSGTEFTLTISSLQPEDFATYYCLQHNSYPWTFGQGTKVEIKRTVAAPSVFIFPPSDEQLKSGTASVVCLLNNFYPREAKVQWKVDNALQSGNSQESVTEQDSKDSTYSLSSTLTLSKADYEKHKVYACEVTHQGLSSPVTKSFNRGEC
chain: ESKYGPPCPPCPAPEAAGGPSVFLFPPKPKDTLMISRTPEVTCVVVDVSQEDPEVQFNWYVDGVEVHNAKTKPREEQFNSTYRVVSVLTVLHQDWLNGKEYKCKVSNKGLPSSIEKTISKAKGQPREPQVYTLPPSQGDMTKNQVQLTCLVKGFYPSDICVEWESNGQPENNYKTTPPVLDSDGSFFLASRLTVDKSRWQEGNVFSCSVMHEALHNHYTQKSLSLSLG
notes: One-arm heteromab, IgG4 PAA, monovalent for human TfR; also called OAH1
In the case of B1, the values for the Kd with human TfR ECD and in the assay with Cynomolgous TfR ECD were 154 nM and 300 nM, respectively.

Usually Kd stands for the concentration at which binding is half-saturated.
